Literature values, collected in publication PMC6802610.

Legend:
[1] = molecular target: GDI (Homo sapiens) (UniProt P31150)
[2] = molecular target: Rab1 (Homo sapiens) (UniProt P62820)
Sequence of Rab1 (Homo sapiens) (P62820 2-205): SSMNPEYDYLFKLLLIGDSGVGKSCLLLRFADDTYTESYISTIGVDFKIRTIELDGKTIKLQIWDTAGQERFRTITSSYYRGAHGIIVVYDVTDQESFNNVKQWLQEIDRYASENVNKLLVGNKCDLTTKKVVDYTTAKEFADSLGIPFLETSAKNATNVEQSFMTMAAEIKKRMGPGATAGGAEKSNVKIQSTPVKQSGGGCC

Sequence of SidM/DrrA (Q5ZSQ3 whole entry): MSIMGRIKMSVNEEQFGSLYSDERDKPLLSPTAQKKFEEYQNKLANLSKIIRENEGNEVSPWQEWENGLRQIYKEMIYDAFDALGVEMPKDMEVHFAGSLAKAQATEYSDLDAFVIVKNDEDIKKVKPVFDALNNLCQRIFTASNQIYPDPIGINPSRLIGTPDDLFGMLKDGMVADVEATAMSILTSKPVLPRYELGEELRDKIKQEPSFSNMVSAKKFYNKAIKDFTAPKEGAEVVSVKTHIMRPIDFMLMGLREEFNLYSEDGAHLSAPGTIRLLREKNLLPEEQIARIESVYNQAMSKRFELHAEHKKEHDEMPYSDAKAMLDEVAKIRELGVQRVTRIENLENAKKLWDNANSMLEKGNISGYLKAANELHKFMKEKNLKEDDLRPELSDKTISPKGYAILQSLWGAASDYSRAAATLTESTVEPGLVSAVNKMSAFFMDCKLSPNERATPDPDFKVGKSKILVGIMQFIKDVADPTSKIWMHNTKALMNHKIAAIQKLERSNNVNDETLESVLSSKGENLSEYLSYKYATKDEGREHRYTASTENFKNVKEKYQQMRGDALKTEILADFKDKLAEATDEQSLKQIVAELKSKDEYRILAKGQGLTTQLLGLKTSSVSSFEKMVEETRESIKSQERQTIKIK
Sequence of GDI (Homo sapiens) (P31150 whole entry): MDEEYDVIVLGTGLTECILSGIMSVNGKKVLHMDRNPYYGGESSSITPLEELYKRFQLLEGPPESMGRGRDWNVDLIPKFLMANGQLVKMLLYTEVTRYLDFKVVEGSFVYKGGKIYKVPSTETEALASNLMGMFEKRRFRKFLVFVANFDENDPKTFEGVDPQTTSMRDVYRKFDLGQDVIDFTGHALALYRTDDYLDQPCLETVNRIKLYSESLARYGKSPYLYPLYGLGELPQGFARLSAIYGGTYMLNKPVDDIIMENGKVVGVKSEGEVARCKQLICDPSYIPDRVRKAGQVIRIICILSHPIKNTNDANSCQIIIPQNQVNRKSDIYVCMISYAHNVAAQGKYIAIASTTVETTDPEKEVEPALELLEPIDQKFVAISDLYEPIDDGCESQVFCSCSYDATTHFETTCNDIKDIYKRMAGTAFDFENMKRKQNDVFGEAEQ
Sequence of Rab1 (P62820 2-205): as the sequence (P62820 2-205) above

Substance	Kd [1]	Kd [2]
Rab1 (from UniProt P62820)	0.02 µM	
SidM/DrrA (from UniProt Q5ZSQ3)		0.084 µM
